Publication PMC12582121, “RNA binding of GAPDH controls transcript stability and protein translation in acute myeloid leukemia”

Tests used:
[1] = target: T1, GAPDH (Homo sapiens, UniProt P04406 1-335); test: EMSA; 10 mM Tris-HCl pH 8.0, 50 mM KCl, 2 mM DTT, 0.5 mM EDTA, 0.1 mg/ml BSA, 0.1 mg/ml heparin, room temperature; FP 30 min with 2 nM RNA; EMSA 20 min plus 10% glycerol and RiboLock, 6% native gel at 4°C; mass photometry without BSA/heparin; conditions: protein: recombinant, tags: N-terminal His, chain copies: 4, single strand
T1 sequence (P04406 whole entry): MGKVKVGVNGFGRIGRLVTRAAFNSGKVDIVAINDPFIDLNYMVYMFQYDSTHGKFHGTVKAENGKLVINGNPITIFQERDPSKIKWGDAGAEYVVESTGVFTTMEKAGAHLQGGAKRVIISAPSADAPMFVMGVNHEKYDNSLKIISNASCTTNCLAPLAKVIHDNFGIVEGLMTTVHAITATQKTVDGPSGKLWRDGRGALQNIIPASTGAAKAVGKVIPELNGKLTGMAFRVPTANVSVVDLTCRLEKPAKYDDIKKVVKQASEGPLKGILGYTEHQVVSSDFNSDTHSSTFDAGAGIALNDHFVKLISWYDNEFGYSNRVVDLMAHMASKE

[2] = target: T1, GAPDH; test: EMSA, possibly a misprint for nM; 10 mM Tris-HCl pH 8.0, 50 mM KCl, 2 mM DTT, 0.5 mM EDTA, 0.1 mg/ml BSA, 0.1 mg/ml heparin, room temperature; FP 30 min with 2 nM RNA; EMSA 20 min plus 10% glycerol and RiboLock, 6% native gel at 4°C; mass photometry without BSA/heparin; conditions: protein: recombinant; tags: N-terminal His; chain copies: 4; label: fluorescein (Roche RNA labeling mix, internal); single strand
[3] = target: T1, GAPDH; test: fluorescence polarization; 10 mM Tris-HCl pH 8.0, 50 mM KCl, 2 mM DTT, 0.5 mM EDTA, 0.1 mg/ml BSA, 0.1 mg/ml heparin, room temperature; FP 30 min with 2 nM RNA; EMSA 20 min plus 10% glycerol and RiboLock, 6% native gel at 4°C; mass photometry without BSA/heparin; conditions: protein: recombinant, tags: N-terminal His, chain copies: 4, single strand

B1: GAPDH 5'UTR (ssRNA)
RNA: GGGCUCUCUGCUCCUCCUGUUCGACAGUCAGCCGCAUCUUCUUUUGCGUCGCCAGCCGAGCCACAUCGCUCAGACACC
With B1 the Kd ([1]; label: fluorescein (Roche RNA labeling mix, internal)) was 400 nM.

B2: RPL13a 5'UTR (ssRNA)
RNA: GGGCCUCCUUUUCCAAGCGGCUGCCGAAGAUGGCGGAGGUGCAGGUCCUGGUGCUUGAUGGUCGAGGCCAUCUCCUGGGCCGCCUGGCGGCCAUCGUGGCUAAACAG
In the case of B2, the Kd [2] is reported as 887000 nM.

B3: Rβ31 (ssRNA)
RNA: UGGCCAAUGCCCUGGCUCACAAAUACCACUG
B3 gave a Kd ([3]; S17 legend says FITC-labeled RNA) of 1310 nM.

B4: TNFα-ARE38 (ssRNA)
RNA: GUGAUUAUUUAUUAUUUAUUUAUUAUUUAUUUAUUUAG
B4 showed a Kd [1] of 217 nM and a Kd [3] of 167 nM.
